In US20240309073A1 (SERUM INSTITUTE OF INDIA PRIVATE, published 2024):

How the values were obtained:
Experiment in all cases: cell-based or functional assay
[1] = target: T1, Dengue virus serotype DV2 (Dengue virus serotype 2 (DV2), UniProt P29990 281-775)
[2] = target: T2, Dengue virus serotype DV4 (Dengue virus serotype 4 (DV4), UniProt P09866 280-774)
[3] = target: T1, Dengue virus serotype DV2; remark: listed apart in the source
[4] = target: T3, Dengue virus serotype DV3 (Dengue virus serotype 3 (DV3), UniProt Q6YMS4 281-773)
[5] = target: T2, Dengue virus serotype DV4; remark: listed apart in the source
[6] = target: T1, Dengue virus serotype DV2; remark: listed apart in the source
[7] = target: T3, Dengue virus serotype DV3; remark: listed apart in the source

T2 sequence (P09866 280-774 limits assumed): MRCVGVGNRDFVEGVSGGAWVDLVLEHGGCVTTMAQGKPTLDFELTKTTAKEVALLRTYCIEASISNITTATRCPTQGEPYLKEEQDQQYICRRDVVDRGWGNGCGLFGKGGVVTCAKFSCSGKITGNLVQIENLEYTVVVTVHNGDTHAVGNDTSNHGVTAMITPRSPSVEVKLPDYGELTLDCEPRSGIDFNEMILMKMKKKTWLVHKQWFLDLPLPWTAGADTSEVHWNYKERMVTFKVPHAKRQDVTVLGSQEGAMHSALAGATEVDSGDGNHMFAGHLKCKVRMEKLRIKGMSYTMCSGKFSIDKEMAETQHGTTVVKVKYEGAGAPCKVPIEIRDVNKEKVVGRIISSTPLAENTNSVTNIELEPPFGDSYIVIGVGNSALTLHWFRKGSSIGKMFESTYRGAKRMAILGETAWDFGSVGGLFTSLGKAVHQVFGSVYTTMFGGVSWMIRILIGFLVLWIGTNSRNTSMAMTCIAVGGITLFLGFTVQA

B1: Dengue (VIS513) Monoclonal antibody (antibody, human IgG1, kappa, V domains shown)
VH: QVQLVQSGAEVKKPGASVKVSCKAGFNIKDVYMSWVRQAPEQGLEWMGRIDPENGDTKYDPKLQGRVTMTADTSTNTAYMELRSLRSDDTAVYYCARGWEGFAYWGQGTLVTVSS
VL: DIVMTQSPASLAVSLGERATISCRASENVDKYGNSFMHWYQQKPGQPPKLLIYRASELQWGVPDRFSGSGSGTDFTLTISSLQAEDVAVYYCQRSNEVPWTFGQGTKLEIKR
EC50 (ng/ml) by PRNT assay; Batch 1, 40° C. study, Control, 0 day [1]: 6.66 ng/mL
EC50 (ng/ml) by PRNT assay; Batch 1, 40° C. study, Control, 7 days [1]: 6.37 ng/mL
EC50 (ng/ml) by PRNT assay; Batch 1, 40° C. study, Control, 14 days [1]: 6.18 ng/mL
EC50 (ng/ml) by PRNT assay; Batch 1, stored at 40° C., Test, 7 days [1]: 26.9 ng/mL
EC50 (ng/ml) by PRNT assay; Batch 1, stored at 40° C., Test, 14 days [1]: 36.1 ng/mL
EC50 (ng/ml) by PRNT assay; Batch 1, stored at 25° C., 0 day [2]: 30.3 ng/mL
EC50 (ng/ml) by PRNT assay; Batch 1, stored at 25° C., 30 days [2]: 35.3 ng/mL
EC50 (ng/ml) by PRNT assay; Batch 2, stored at 25° C., 0 day [2]: 22.5 ng/mL
EC50 (ng/ml) by PRNT assay; Batch 2, stored at 25° C., 30 days [2]: 30.7 ng/mL
EC50 (ng/ml) by PRNT assay; Batch 1, stored at 25° C., 0 day [3]: 5.9 ng/mL
EC50 (ng/ml) by PRNT assay; Batch 1, stored at 25° C., 30 days [3]: 5.6 ng/mL
EC50 (ng/ml) by PRNT assay; Batch 2, stored at 25° C., 0 day [3]: 3.26 ng/mL
EC50 (ng/ml) by PRNT assay; Batch 2, stored at 25° C., 30 days [3]: 5.51 ng/mL
EC50 (ng/ml) by PRNT assay; Batch 1, stored at 25° C., 0 day [4]: 14.4 ng/mL
EC50 (ng/ml) by PRNT assay; Batch 1, stored at 25° C., 30 days [4]: 9.63 ng/mL
EC50 (ng/ml) by PRNT assay; Batch 2, stored at 25° C., 0 day [4]: 13.2 ng/mL
EC50 (ng/ml) by PRNT assay; Batch 2, stored at 25° C., 30 days [4]: 9.25 ng/mL
EC50 (ng/ml) by PRNT assay; Batch 1, stored at 2-8° C., 0 day [5]: 30.3 ng/mL
EC50 (ng/ml) by PRNT assay; Batch 1, stored at 2-8° C., 3 months [5]: 50.8 ng/mL
EC50 (ng/ml) by PRNT assay; Batch 1, stored at 2-8° C., 6 months [5]: 24 ng/mL
EC50 (ng/ml) by PRNT assay; Batch 1, stored at 2-8° C., 9 months [5]: 23.4 ng/mL
EC50 (ng/ml) by PRNT assay; Batch 2, stored at 2-8° C., 0 day [5]: 22.5 ng/mL
EC50 (ng/ml) by PRNT assay; Batch 2, stored at 2-8° C., 3 months [5]: 22.4 ng/mL
EC50 (ng/ml) by PRNT assay; Batch 2, stored at 2-8° C., 6 months [5]: 16.6 ng/mL
EC50 (ng/ml) by PRNT assay; Batch 2, stored at 2-8° C., 9 months [5]: 19.6 ng/mL
EC50 (ng/ml) by PRNT assay; Batch 1, stored at 2-8° C., 0 day [6]: 5.9 ng/mL
EC50 (ng/ml) by PRNT assay; Batch 1, stored at 2-8° C., 3 months [6]: 8.03 ng/mL
EC50 (ng/ml) by PRNT assay; Batch 1, stored at 2-8° C., 6 months [6]: 3.58 ng/mL
EC50 (ng/ml) by PRNT assay; Batch 1, stored at 2-8° C., 9 months [6]: 3.31 ng/mL
EC50 (ng/ml) by PRNT assay; Batch 2, stored at 2-8° C., 0 day [6]: 3.26 ng/mL
EC50 (ng/ml) by PRNT assay; Batch 2, stored at 2-8° C., 3 months [6]: 5.69 ng/mL
EC50 (ng/ml) by PRNT assay; Batch 2, stored at 2-8° C., 6 months [6]: 4.15 ng/mL
EC50 (ng/ml) by PRNT assay; Batch 2, stored at 2-8° C., 9 months [6]: 2.87 ng/mL
EC50 (ng/ml) by PRNT assay; Batch 1, stored at 2-8° C., 0 day [7]: 14.4 ng/mL
EC50 (ng/ml) by PRNT assay; Batch 1, stored at 2-8° C., 3 months [7]: 14.7 ng/mL
EC50 (ng/ml) by PRNT assay; Batch 1, stored at 2-8° C., 6 months [7]: 5.58 ng/mL
EC50 (ng/ml) by PRNT assay; Batch 1, stored at 2-8° C., 9 months [7]: 4.57 ng/mL
EC50 (ng/ml) by PRNT assay; Batch 2, stored at 2-8° C., 0 day [7]: 13.2 ng/mL
EC50 (ng/ml) by PRNT assay; Batch 2, stored at 2-8° C., 6 months [7]: 6.53 ng/mL
EC50 (ng/ml) by PRNT assay; Batch 2, stored at 2-8° C., 9 months [7]: 7.05 ng/mL
